We go through one molecule from patent US20110271408A1 (University of California, published 2011).

The experiment has as its target T1, HAB1-GAL4 AD (Gal4 activation domain (AD)-PP2C fusion protein encoded by pAD-HAB1) (UniProt Q9CAJ0 1-511, limits assumed).
T1 construct: Prey of the yeast two-hybrid assays; also called HAB1-AD
T1 sequence (looked up): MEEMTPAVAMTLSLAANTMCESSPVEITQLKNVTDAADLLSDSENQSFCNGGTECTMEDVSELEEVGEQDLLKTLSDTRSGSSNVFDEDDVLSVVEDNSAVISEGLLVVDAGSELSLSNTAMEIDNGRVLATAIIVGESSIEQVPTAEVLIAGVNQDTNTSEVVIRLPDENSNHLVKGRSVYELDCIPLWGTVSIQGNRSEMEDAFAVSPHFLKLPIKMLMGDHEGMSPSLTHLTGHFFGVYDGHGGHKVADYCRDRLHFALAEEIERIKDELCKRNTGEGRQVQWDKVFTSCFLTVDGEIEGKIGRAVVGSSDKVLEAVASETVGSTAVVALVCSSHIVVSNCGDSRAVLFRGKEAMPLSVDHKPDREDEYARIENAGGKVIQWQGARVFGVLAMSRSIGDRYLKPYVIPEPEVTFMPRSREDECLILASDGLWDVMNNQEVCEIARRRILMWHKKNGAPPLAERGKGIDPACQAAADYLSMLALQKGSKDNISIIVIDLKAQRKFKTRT
Put plainly: yeast two-hybrid X-gal staining on increasing concentrations of fenhexamid (Y190 pAD-HAB1).

B1: PYL2 K64R, Y124H, M164I mutant, GAL4 BD fusion (pBD-PYL2) (receptor)
chain: MSSSPAVKGLTDEEQKTLEPVIKTYHQFEPDPTTCTSLITQRIHAPASVVWPLIRRFDNPERYRHFVKRCRLISGDGDVGSVREVTVISGLPASTSTERLEFVDDDHRVLSFRVVGGEHRLKNHKSVTSVNEFLNQDSGKVYTVVLESYTVDIPEGNTEEDTKIFVDTVVKLNLQKLGVAATSAPMHDDE
As for B1, the binding result was “no binding”.
